In the supplement of paper PMC12764529:
± gives the half width of the 95% confidence interval.

Columns and labels:
[1] = folding stability dG unfold from chymotrypsin proteolysis; higher = more stable
How it was run: (§1)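 Designed mini-proteins (under 80 residues, no cysteine) in a PA-tagged cDNA display construct were digested with trypsin and chymotrypsin. Each protease was used at 11 concentrations (threefold dilutions) plus a no-protease condition, followed by sequencing. K50 was inferred by Bayesian fitting of sequencing counts, and unfolding free energy was derived against a sequence-predicted unfolded-state K50 and a shared folded-state K50, per protease or combined. Only designs with AlphaFold2 dimer inter-PAE above 15 were kept.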

[2] = folding stability dG unfold from trypsin proteolysis; higher = more stable
How it was run: as §1

[3] = folding stability dG unfold (combined trypsin and chymotrypsin); higher = more stable
How it was run: as §1

| Sequence | folding stability dG unfold [1] [kcal/mol] | folding stability dG unfold [2] [kcal/mol] | folding stability dG unfold [3] [kcal/mol] |
| --- | --- | --- | --- |
| SAGGSASAPVPTSVSVSVSSDPASGLTTIPTTVTYNGKTFPMSVTTTPSGTVVTKVGGSTFTVPAASAGGSA [r15_507_JUSTAS] | -0.286 ± 0.11 | 0.0583 ± 0.075 | -0.0606 ± 0.077 |
| SAGGSASIKVTYRFPPDTTVEQAIEDLIAYLEAQTNVKISIPSYTVEREGDYLLVTADILIEPLPESAGGSA [r15_105_TrMRF] | 4.61 ± 0.056 | 4.18 ± 0.086 | 4.59 ± 0.073 |
| SAGGSASLASLRKVGETVTYTITPDGTLTVTTHTFYRDPVTGELVVESTTTTTPIPPGDAAALAALSAGGSA [r15_207_JUSTAS] | 2.37 ± 0.054 | 2.72 ± 0.072 | 2.5 ± 0.098 |
| SAGGSASLEELAEKLREKLPPEEAEKLRELLKELEEKGYEIVEIRIEVLPNGEKKVTIKLKVKKKPSAGGSA [r15_613_TrROS_Hall] | 3.32 ± 0.26 | 3.34 ± 0.2 | 3.41 ± 0.17 |
| SAGGSASLEEVASLPASALAAAAGLTALSVEVTREPDGTVTVTIETRPPDGPVVTVTYTFPVDPAASAGGSA [r15_805_JUSTAS] | 2.6 ± 0.098 | 0.848 ± 0.2 | 2.06 ± 0.39 |
| SAGGSASLNLTPDDNVTLTVSTPDGSGATVEVKVEKLPDGTIKLTETVTWPDGTVSTRTSTISTKASAGGSA [r15_476_JUSTAS] | 0.598 ± 0.028 | 1.08 ± 0.045 | 0.893 ± 0.041 |
| SAGGSASMARVEAIAEEIAPRLKAEGRPIARIEVTATRLPDGTVVVPITLTTPDGTPVYTFEVVVESAGGSA [r15_232_JUSTAS] | 1.74 ± 0.032 | 1.03 ± 0.051 | 1.48 ± 0.058 |
| SAGGSASMSKTTTETSPDSETTTTTYYPNGTVTTTKTTTVGEGTTTTTTTTKVLFIPGPGVLVPEPSAGGSA [r15_746_JUSTAS] | 0.514 ± 0.062 | -0.174 ± 0.045 | 0.259 ± 0.046 |
| SAGGSASMVEEEVTLQKKVKSEEEALKFAEEVKESNPHVKTVEVSLEKLPDGSILVNVTIKRILKPSAGGSA [r15_726_JUSTAS] | 3.31 ± 0.093 | 4.43 ± 0.4 | 4.21 ± 0.29 |
| SAGGSASNLKVTYKITIGSTTITVTLPEGSEKELKKIPNAEVTPISEIEPAPPPILYFKFENNNLVSAGGSA [r15_443_JUSTAS] | 1.25 ± 0.17 | 0.739 ± 0.047 | 1.09 ± 0.089 |
| SAGGSASPEKVAEELKKKGYKEVKITKDPNTNVTTVTVEDPSGKKYTLTVDPKNPTVVSKKEFSLDSAGGSA [r15_648_JUSTAS] | 1.51 ± 0.096 | 0.926 ± 0.043 | 1.25 ± 0.14 |
| SAGGSASRRLFVRTLPDDAVIVVEVPPGMSEEEAVEIAERRAEAAERVLRAAIEAERAGKAPVIPLSAGGSA [r15_704_TrMRF] | -0.0499 ± 0.29 | 0.594 ± 0.13 | 0.342 ± 0.11 |
| SAGGSASSMLSPSLYVTTITVKKPGGMTVTETVPGTPEEVERLIEELKKKGLEVEKVDVVPVSELVSAGGSA [r15_640_JUSTAS] | 1.47 ± 0.034 | 1.9 ± 0.062 | 1.66 ± 0.058 |
| SAGGSASSYGIEIEFSEDPNSKTKKITITVTRPDGTVETVTITNPDITDEEAKKIGEELANEVANSSAGGSA [r15_526_JUSTAS] | 1.93 ± 0.02 | 2.19 ± 0.055 | 2.06 ± 0.059 |
| SAGGSASVTTTVTLPNGEVVTITFDPANPTTATLSFPDGTTVTLSFSSPEEALARAIEELLAGKPLSAGGSA [r15_38_JUSTAS] | 2.01 ± 0.056 | 2.99 ± 0.1 | 2.48 ± 0.081 |
| SAGGSATAEELADEIANYMADRHGMEVKKIEITDVDNDRVVFRAEVEMPNPNGKKHTHPFTIEIPVSAGGSA [r15_276_TrROS] | 0.303 ± 0.31 | -0.0958 ± 0.17 | 0.226 ± 0.29 |
| SAGGSATIEEKIRNIAKEQGFPVTDVQVRRTPGKVYIMFQAKDPRMYYIEIDNDKIKIMPAEDIKPSAGGSA [r15_901_TrROS] | 1.57 ± 0.064 | 1.14 ± 0.027 | 1.36 ± 0.06 |
| SAGGSATLKEIAKEIEKTVKPKYAKKLAKTIEEAVKKGYEIKKIIIEKPKDDSFKATIYLKKPNDPSAGGSA [r15_613_TrMRF] | 0.294 ± 0.45 | 0.676 ± 0.14 | 0.66 ± 0.27 |

| Sequence | folding stability dG unfold [1] [kcal/mol] | folding stability dG unfold [2] [kcal/mol] | folding stability dG unfold [3] [kcal/mol] |
| --- | --- | --- | --- |
| SAGGSATLPEKILEELAAAGYPLEYVTITEVKTEERPGSVVVTVKVEYKVPNSDRIETVNLTVPRPSAGGSA [r15_863_JUSTAS] | 1.68 ± 0.029 | 1.71 ± 0.032 | 1.73 ± 0.036 |
| SAGGSATLTLEAEFRLEDGTTVRVRVEVSPDGTVRIEVEVLPAPPPPPKVEVKEVFTTADGRKVLLSAGGSA [r2_78_TrROS_Hall] | 1.62 ± 0.063 | 1.2 ± 0.035 | 1.57 ± 0.1 |
| SAGGSATPKDPDGKEWKPIAVIDIEEMRPETLKELLEENKGPIWIHPPGEGKPFWIPADEIEDMIDSAGGSA [r15_904_TrROS] | -0.129 ± 0.2 | 0.668 ± 0.054 | 0.336 ± 0.21 |
| SAGGSATQVVLKITIKINKGEKEETREIVLPATDPEEAIAKVKKELKEKGIDAEIEELEILPVDLLSAGGSA [r15_165_JUSTAS] | 0.919 ± 0.059 | 1.31 ± 0.089 | 1.27 ± 0.15 |
| SAGGSAVERLRELLKELGVEVTVERKDGKVYIRVEASPEKREKLAEALRELFGKDIEIEVLEEGEEPSAGGS [r16_514_TrROS_Hall] | 3.17 ± 0.073 | 3.86 ± 0.18 | 3.49 ± 0.08 |
| SAGGSAVIEFELELRTRPDGSVEEEEIIAEARELIEAIPEAENAEILEIRREAFPDGTVRYHVRVRVPSAGG [r13_462_TrMRF] | 3.01 ± 0.036 | 3.46 ± 0.072 | 3.19 ± 0.072 |
| SAGGSAVKIDPKTKVIEVKNPETGETYRISLPDVPPEDGVEVEVGDDKIIIKTPKGTKEIPIDKAKSAGGSA [r15_864_TrMRF] | 0.794 ± 0.18 | -0.000856 ± 0.16 | 0.529 ± 0.25 |
| SAGGSAVPAEAKKKVFLKPVKVNIPLPGNYEIVEIDPKTGKIVIKVPGSSKTLVVDLKSGKVYEFGSAGGSA [r15_452_TrMRF] | 1.78 ± 0.085 | 1.19 ± 0.061 | 1.51 ± 0.14 |
| SAGGSAVSISTVTSTSFPGSGTSVKTYETPDFTVTVTTTRDPNGADTVEIHTDDPEAEKTVREYLASAGGSA [r15_42_JUSTAS] | -0.348 ± 0.28 | 0.601 ± 0.049 | 0.337 ± 0.14 |
| SAGGSAVVVTTDPNGTLTVYADNKVVKVKVIPLPRPDPLTGSTSTLLLVEVEVSPLKPDPLPPEFPSAGGSA [r15_515_TrMRF] | 2.65 ± 0.12 | 2.21 ± 0.2 | 2.44 ± 0.2 |
| SAGGSAYGYFYEYKIRFNGQDLSIALPAGDMEKLKDLPGVEIEPRRPEEPPPPPKEEERDPDGKKKSAGGSA [r15_443_TrROS] | 2.98 ± 0.071 | 2.3 ± 0.18 | 2.8 ± 0.24 |
| SAGGSDEHEYKGTGRDPDNGQTREETYRVEPVVPPIPISISVSLNLDIDPNGNLNWDFNISIGIGISAGGSA [r2_326_TrROS] | 3.81 ± 0.33 | 2.78 ± 0.2 | 3.33 ± 0.37 |
| SAGGSDGEMITYPFLLPDGYLITIWISPENGQITEIEIMPIPAPPPEPPVEPKYGRDDGNGNKKYDSAGGSA [r2_78_TrROS] | 1.72 ± 0.088 | 1.14 ± 0.047 | 1.52 ± 0.16 |
| SAGGSDLKVQVNKDGNTIRIQLPDGKPIFEIPFYRYDPDDGKPLEPWTIRMRLDPDGNIKIEEITPSAGGSA [r2_362_TrROS] | 1.45 ± 0.14 | 1.77 ± 0.044 | 1.68 ± 0.15 |
| SAGGSDRVLVPAGPSDYDVLVVVTPGPGDLVGVDALVIHPDGTPLAVRGVLDPTTGGISPVAVDPLSAGGSA [r2_402_TrMRF] | 0.243 ± 0.051 | 0.28 ± 0.024 | 0.258 ± 0.038 |
| SAGGSDTVVLDFTVTVDGKPYTVRVTLTRNPPTGEITVPVEIESANPEDAVPAREVADALVERLLSSAGGSA [r2_259_TrMRF] | 1.78 ± 0.075 | 1.21 ± 0.028 | 1.56 ± 0.076 |
| SAGGSEEFELEFRVEAASPEEAEALAEEIRKRLEDLGLDVEVEAETLEPGAVVVRPRVRVDPETGRLDSAGG [r13_697_TrMRF] | 1.29 ± 0.065 | 0.126 ± 0.24 | 0.956 ± 0.16 |
| SAGGSEEIKKLLASGQLDEVIALLKKKGYENVTVTPDPRKPVVTINVTKTDPKTGKKKTTTITIPTGLSAGG [r13_359_JUSTAS] | 4.03 ± 0.052 | 3.62 ± 0.1 | 3.92 ± 0.086 |
